Assay results reported in patent US20250002576A1.

Biological target: human Claudin 18.2 (human) (UniProt P56856)
Assay: flow cytometry, antibody dilution series on hCLDN18.2-expressing MiaPaCa-2 cells

- EC50: 7.2 nM
B1: YU577-E08 (antibody, V domains shown)
VH: QVQLVQSGAEVKKPGASVKVSCKASGYTFTSYYMHWVRQAPGQGLEWMGIINPSGGSTSYAQKFQGRVTMTRDTSTSTVYMELSSLRSEDTAVYYCATRQFDYWGQGTLVTVSS
VL: QSVLTQPPSVSAAPGQKVTISCSGSSSNIGNNYVSWYQQLPGTAPKLLIYENNKRPSGIPDRFSGSKSGTSATLGITGLQTGDEADYYCGTWDSSLSAAVFGGGTKVTVL
